20 sequences from the DeepSol protein solubility set can be followed below.

This data set in a line: soluble on expression in E. coli; label from the status in PepcDB or PDB records.
Consider “MSSAENIKESGKAKKQKNGNKNNNKKPSAEAIPLKNSPRNKLKKRGSMEQLSEQISEVFTIEMNNDQATVEEPTDTTVRINPADPSSPKVSTSEPKVTVPEPPPTHYAPVVVFIDHLSWPIFLHFVIVNRNMIITKVGRSFLTSLMPGDQISGVDSTPIWCIEDLEHEIQSKPARSVNLTVNRVWNIKCLTNIQLERILPQTDERLQYFMVHVYCSNGTGGLKLYSDKKRVLVQHIRAKTPICHALLVGDQILAINDEFLIGKPKKSLRRHAYDSIKKSFKTKGFAEIIACRPIGARSSPAPSVDAELSGKFANYACGVEKGNKLERKVTDETNNLPLEADALEIALRELTFLQQWVKQDFEEAPCEKGKSLLILKPPFENAKPYEYPPFVVNHQTQLVSAKALSSPVTNTPVAHSPPQALPNKTIIVPVGSTSSVLVPSTTSNALPPVLSLNSQSLSVKTLSMAPQVSQVEPPTSVMNGPTEAADLHVAVPPSPNTPRKRSIFKYKQEKGQTPEHQTTISFVEQPETSKITSDISEDEELKKCDPRSGIVAFIKNKFN”, for which the “soluble on expression in E. coli” value was “not soluble”.
As for “MSSASELMRCSGRWTLFRRTLPRLRKCVGVGETSGREKPPNSPNSSTLPMMTKTELSPPQIHINFIFFLPKNVFILKNCSL”, the “soluble on expression in E. coli” value is recorded as “not soluble”.
Turning to “MSSDIQQIRIGLTNNHPCSYLADRMERVAVAIDPQMQTPETYEVLMANGFRRSGDTIYKPHCDHCQSCQALRIPAPDFVPSKSQKRLLKLLSQEFHWQLKPELDEDWYTLYARYIFARHRHGSMYPPNKMEFAKFARAKWLNTQYLHLYQGEKLVAIAVTDLLPNSASAFYTFYDPDISISLGTLAVLCQLNYCQQTKKQWLYLGYQIDECPAMNYKVRFNPHQRLVNQRWRGLEHHHHHH”, the “soluble on expression in E. coli” value is listed as “soluble”.
For “MSSDMRVHSWSCSYYLDLEKQWVSGKLTLTPHSLKFIVEKTEEVLVGLPLSSIIEIRKESSLFIFGAITVLEKGQTKHWFSSLQPSRNVVFNVIEHFWRELLLSQPGTAANIPSHVTRGQELIGLMANSQKRMEDTAKDLQQQSEQLDSVLKGLEKMESDLDVADRLLTELETPSWWPFGSKFWKMPAEENLKEGVSSTCEPFGKEGVVITVPAIISERAESHSKLGKLTVLVSALEIYDSCSLLLHRFEKEDVDDIKVHSPYEVSIRQRFIGKPDVAYQLISAKMPEVIPILEVQFSSKIELLEDALVLRNKVFASSAERHAASRPKGCTPHRELPTGGQEGEQLQLQKNLPLFSEGEAQELTQILSKMKGLALDTEAELERQDAALDGITVAVDRATLNVDKQNRRMRKLM”, the “soluble on expression in E. coli” value is on record as “not soluble”.
As for “MSSETITVERSGKVHHAEGDAARLDAYIPSECPQNHAANLLHLPNGDVLCVWFGGTQEGIADISIYMSRLVKDSGSWSKAAKLSEDATRSEQNPVLFLAPDNVLWLLYTAQKSGNQDTAIVRYRQSTDLGATWGEIGTLLDQPGTFIRQPITVLENGDWLLPVFYCRVQPGEKWVGNDDDSAVKISSDQGKTWREYPVPNSTGCVHMNITPLQDGTLLALYRSRWADFIYQSRSTDGGKTWSEPVATDLPNNNSSIQVTTLKNGHLALVFNHMSAADATDRRLSLYDEIEDEEDKASGAKMPEVQAGDRSAFWGAPRAPMTLAISEDGGKSWPYQRNIEVGDGYCMTNNSTEKLNREFSYPSVKQAPDGKLHVAFTYFRQAIKHVVVSEEWVKAGLEHHHHHH”, the entry is “not soluble”; as for “MSSFLFENAAILDGQARELRENQHVLVEANRIIEVSDKPIKSKNSERINVNGMTLMPGLIDAHVHVKATIVNVGRLSDIPVSYLTADAGKFMRQMLMRGFTTVRDAGGADRGLADAVTDGLLIGPRLFVSGLSLSQTGGHGDMRPVTSDSHPITCACLASTQQLGRIADGVDECRRAARDELRKGAHQIKIMAGGGVASPNDPIQNTQYSVEEIRAICEEAAAAHTYVMAHAYVPAAISRAIENGVRTIEHGNLLDAEAAKVMSKHNAFLVPTNVTYRALYKHGKSFGFPEVSIGKLKDVLDVGLSAIEIAKNNGVKIGHGSDLLGECQVYQSDELSIKAEVVGNYEAIRHATEVNAEILNMTGELGVIKENALADILIVDGNPIKDVGFLSNDAKFIPNNNER”, “soluble”.
With “MSSGSAGAPALSNNSTNSVAKEKSGNISGDEYLSQEEEVFDGNDIENNETKVYEESLDLDLERSNRQVWLVRLPMFLAEKWRDRNNLHGQELGKIRINKDGSKITLLLNENDNDSIPHEYDLELTKKVVENEYVFTEQNLKKYQQRKKELEADPEKQRQAYLKKQEREEELKKKQQQQKRRNNRKKFNHRVMTDRDGRDRYIPYVKTIPKKTAIVGTVCHECQVMPSMNDPNYHKIVEQRRNIVKLNNKERITTLDETVGVTMSHTGMSMRSDNSNFLKVGREKAKSNIKSIRMPKKEILDYLFKLFDEYDYWSLKGLKERTRQPEAHLKECLDKVATLVKKGPYAFKYTLRPEYKKLKEEERKATLGELADEQTGSAGDNAQGDAEADLEDEIEMEDVV”, the “soluble on expression in E. coli” value is on record as “soluble”.
As for “MSSGYSSLEEDEDFFFTARTSFFRRAPPGKSRSGQPDVEKEKETHNYLSKEEIKEKVHKYNSAVTDKLKMTLNSNGIYTGFIKVQMELCKPAQPSPEPSSGGCMNTLHISSTNTVGEVIEALLRKFLVTESPTKFALYKRCHREDQVYACKLSDREHPLYLRLVAGPRTDTLSFVLREHEIGEWEAFSLPELQNFLRILDKEEDEQLQSLKRRYTAYRQKLEEALGEVWKPG”, the entry is “not soluble”.
As for “MSSIKIECVLPENCRCGESPVWEEVSNSLLFVDIPAKKVCRWDSFTKQVQRVTMDAPVSSVALRQSGGYVATIGTKFCALNWKEQSAVVLATVDNDKKNNRFNDGKVDPAGRYFAGTMAEETAPAVLERHQGALYSLFPDHHVKKYFDQVDISNGLDWSLDHKIFYYIDSLSYSVDAFDYDLQTGQISNRRSVYKLEKEEQIPDGMCIDAEGKLWVACYNGGRVIRLDPVTGKRLQTVKLPVDKTTSCCFGGKNYSEMYVTCARDGMDPEGLLRQPEAGGIFKITGLGVKGIAPYSYAG”, the entry is “soluble”; as for “MSSKSTKRAKIEDPKDNVFMVEKVLDKRTGKAGRDEFLIQWQGFPESDSSWEPRENLQCVEMLDEFEREFSKREKPIRKRHSQKPEPSEDQADPEEDKDEKKETNQNDKFSLEGKQLKCIVGLTKGPGELHFLCKFSDDTARLLPAKEVNSRYRPFVDAYGEFLKKKMERRHKRISEGKKKRSIEEDDADDEWPEMPPGHRILTTEEHELQRRKESKISQDVEMTEAFQQTAADMLNDMHMAANGDLLSSFPQDFLEDSGDGEVHEAAILSVFDDNSNSPPPCPIVVDTVPDDDDSLLFPRNS”, “soluble”.
Consider “MSSLADLINLDLSDSTDQIIAEYIWIGGSGLDMRSKARTLPGPVTDPSQLPKWNYDGSSTGQAPGDDSEVIIYPQAIFKDPFRRGNNILVMCDAYTPAGEPIPTNKRHAAAKIFEDPSVVAEETWYGIEQEYTLLQKDIKWPVGWPVGGFPGPQGPYYCGVGADKAFGRDIVDSHYKACLYAGINVSGTNGEVMPGQWEFQVGPTVGIAAADQVWVARYILERITELAGVVLSLDPKPIPGDWNGAGAHTNYSTKSMREDGGYEVIKKAIEKLGLRHKEHIAAYGEGNERRLTGKHETADINTFLWGVANRGASIRVGRDTEQAGKGYFEDRRPASNMDPYTVTSMIAESTILWKP”, for which the “soluble on expression in E. coli” value is given as “soluble”.
With “MSSNYVMATKEGQMLLTQGKPMLDKDTGLLSYTDEQGNQKQINSDQVSQIVQRLEHHHHHH”, the “soluble on expression in E. coli” value is listed as “not soluble”.
For “MSSPRHVFYISDRTGLTAENIGEALLNQFGNLSFKRHTHPFVDTPEKARAVVEKVNRSRQENGQRPIAFVSVVDDEIRRIIKGADAFQINFFETFLGLLEKELNTEATASEQGHHSIGNTKRYDARMEAVNFSLNHDDGVSDKNLQEADVILMGVSRSGKTPTCLYLALQYGIRAANYPLIPDDLESADLPRMVKPYRDKLFGLTIQPERLQAIRQERRPNSTYAKIDTCRSEVADAQSMFRRHGIPFANTTDKSVEELAVHILQACKLKRRFLEHHHHHH” the value was “soluble”.
With “MSSPSSASESDSSQMSLLATPPVAIRRPLPYPRDIISSPLEVATPVTVSPTDFMPIRELVTTPYHISTPVLITPVDARSISREIVRVNRIRRVRTRQASRSVFNSVRRRLSMITANRTEIQMNTPQTLPRSKRIDNTSTAMEPVSSNAFQKIISEILNNSPACTETINSTIIPSNSSNCAKLREFNRLESIGIAQMAVENENEILEALDFIEWNIRLMSCESDYIDKVLEDLENEKLNKQNKWERIELILSLIQD”, the “soluble on expression in E. coli” value is “not soluble”.
“MSSRVANLTVIVSSKRRRVSVARFSCGKTAQLSKKQTGYYSPEIFPSTGKDCNPQPANCLKDQYVLRHCCVDDRSGKMGYSVKFLVLTRMDTETASLFHCKPCYSKMTFTIYHPLTHSFFTSCWLEHHHHHH”: the “soluble on expression in E. coli” value is recorded as “not soluble”.
As for “MSSSAAKYDVFQAIADPTRREVIRLLSDKELPISKITDHFPMSRTAVVKHLHILSEANLVSGRKSGREKIYRLHPEPLEELQQWLSYYERFWDNKLSMLKHIVENEE”, the entry is “not soluble”.
Consider “MSSSGPTRSISTGTKPPTESLYKREVAQMMQQHQQQQRINNNKGYRPQGASPPKELKRRFYDDGSVTPSSRQSRNERSMDGRPSPEHGAIIGENRKSSPPAEEKYSNSGTRCKLPIPDMFRFYDKEMANEKLESLGLADEDDKKTLTKMRRHSIWMDNQLLNQLQASESNKQYLSAKKQMRDILITRIDHIDNAHKNVNSLFVHDFVHDYIILFKNKVSKSEKFLLCLKKINN”, for which the “soluble on expression in E. coli” value was “not soluble”.
For “MSSSPAVKGLTDEEQKTLEPVIKTYHQFEPDPTTCTSLITQRIHAPASVVWPLIRRFDNPERYKHFVKRCRLISGDGDVGSVREVTVISGLPASTSTERLEFVDDDHRVLSFRVVGGEHRLKNYKSVTSVNEFLNQDSGKVYTVVLESYTVDIPEGNTEEDTKMFVDTVVKLNLQKLGVAATSAPMHDDE” the value was “soluble”; for “MSSSQVVRDSAKKLVNLLEKYPKDRIHHLVSFRDVQIARFRRVAGLPNVDDKGKSIKEKKPSLDEIKSIINRTSGPLGLNKEMLTKIQNKMVDEKFTEESINEQIRALSTIMNNKFRNYYDIGDKLYKPAGNPQYYQRLINAVDGKKKESLFTAMRTVLFGK”, “not soluble”.
“MSSTSRIMRPDDANIVGNVHGGTILKMIEEAGCIIGTRHCNTQSGDRCLAALARVERTDFLHPMFIGEVAHVSAEITYTSKHSVEVQVNVLAENIVTGAKKVTNKATLWYVPLSLQNVDKIIEVPPIEYSSPEREEAGKKRYEAQKLERLEDKVRNGEIIMSVSLPEPYTVVCSQSSLIHLVGPSDCTLHGFVHGGVTMKLMDEVAGIVAARHCKTNIVTASVDAINFHRKIKKGCVITVSGRMTFTSNKSMEI”: the “soluble on expression in E. coli” value is listed as “soluble”.
